According to doi:10.1101/2024.03.20.586028:

Molecular target: Methanocaldococcus jannaschii SufB* (N-terminal His6 tagged) (Methanocaldococcus jannaschii)
Assay: pull-down

stoichiometry N: 1
Substance: Methanocaldococcus jannaschii SufC (untagged) (natural protein)
